Legend:
[1] = biological target: mAb R24 (anti-GD3 monoclonal antibody, IgG3); test: competitive ELISA: BEC2 pre-incubated with mAb R24 (30 min), remaining R24 binding to plate coated with 0.1 µg GD3 ganglioside
[2] = biological target: mAb R24 (anti-GD3 monoclonal antibody, IgG3); test: competitive ELISA: peptide pre-incubated with mAb R24 (30 min), remaining R24 binding to plate coated with 0.1 µg GD3 ganglioside
[3] = biological target: mAb R24 (anti-GD3 monoclonal antibody, IgG3); test: competitive ELISA: peptide pre-incubated with mAb R24, remaining R24 binding to GD3-coated plate

| Molecule | IC50 [1] | concentration giving full inhibition [1] | IC50 [2] | concentration giving full inhibition [3] |
| --- | --- | --- | --- | --- |
| ACTPYAMLPGCK [GD3-like peptide PGD3-5] | – | – | 100 nM | > 600 pmol/mL |
| RHAYRSMAEWGFLYS [GD3-like peptide PGD3-4] | – | – | 150 nM | > 600 pmol/mL |
| GLAPPDYAERFFLIS [GD3-like peptide PGD3-3] | – | – | 300 nM | > 600 pmol/mL |

Other lines, results leading:

| IC50 [1] | concentration giving full inhibition [1] | IC50 [2] | concentration giving full inhibition [3] | Molecule |
| --- | --- | --- | --- | --- |
| 10 µg/mL | 60 µg/mL | – | – | mAb BEC2 (anti-idiotypic monoclonal antibody, IgG2b) |
| – | – | 250 nM | > 600 pmol/mL | SVAVPPPADDPSWRY [GD3-like peptide PGD3-6] |
